Patent US7432342B2, “Kinase anchor protein muteins, peptides thereof and related documents” (Sequenom, Inc., priority 2002, dated 2008)
Read-outs that look alike come from different tables or passages of the source. Blank lines part the entries; values can stand above or below the molecule they belong to. Ends that are not written are not given here. Peptide text beside a SMILES is read from it.

Assays:
[1] = molecular target: PKA-RIα-GFP (Bos taurus, UniProt P00514); assay: Surface plasmon resonance (BIAcore CM5 chips); format: binding
Protocol: Two 27-mer peptides representing the Ile and Val variants (SEQ ID NOs:1 and 2, respectively) were synthesized and purified in milligram quantities and the affinity to PKA-RIα-GFP was determined using well-known surface plasmon resonance in combination with BIAcore chips (see, e.g., Current Opinion in Biotechnology (1997) 8:50-57; Current Opinion in Biotechnology (1994) 5:389-395; Current Opinion in Biotechnology (1994) 5:65-71; Structure (1995) 3:969; Current Biology (1995) pp. 699-705; Analytical Biochemistry (1991) 201:197-210; and macinfac.bio.unc.edu/biacore.html). PKA-RIα-GFP was coupled to BIAcore CM5 chips. BSA was immobilized on control chips.
The affinities in this assay are lower compared to those determined by fluorescence anisotropy. The most likely reason is that in this study the signal difference between the flow cell with the regulatory subunit and the control protein BSA was measured, such that slight unspecific binding to BSA directly reduces the apparent affinity. However, similar to previous results, an affinity difference of PKA-RIα-GFP to both allelic 27-mer peptides was observed (Table 6).

[2] = molecular target: RIα (Bos taurus, UniProt P00514); assay: Fluorescence anisotropy binding of labeled 27-mer AKB Ile/Val peptides (Example 2); conditions: in vitro; 10 nM labeled peptide
Protocol: To assess the magnitude of the affinity difference, binding of both Ile/Val variants to the R-subunit isoforms of PKA was analyzed in a quantitative assay. Twenty-seven residue peptides containing the two AKB domain Ile/Val variants (SEQ ID NOs:1 and 2, respectively) of D-AKAP2 with a C-terminal cysteine were synthesized by SynPep Corporation (Dublin, Calif.). The peptides were HPLC (high performance liquid chromatography) purified and mass spectrometry checked. Both peptides were labeled with tetramethyl rhodamine-5-maleiamide (Molecular Probes, Eugene, Oreg.) at the cysteine residue and HPLC purified. Increasing concentrations of RIα and RIIβ, respectively, were equilibrated with 10 nM of peptide for at least one hour at room temperature in 10 mM HEPES, 150 mM NaCl, 3 mM EDTA, 0.005% polysorbate 20. […] Fluorescence anisotropy was monitored using a Fluoromax-2 (Spex, Jobin Yvon Horiba, Edison, N.J.) equipped with polarizers. The fluorophore was excited at 541 nm (5-10 nm bandpass) and emission was monitored at 575 nm (5-10 nm bandpass). […]
Peptides of each AKB Ile/Val variant (SEQ ID NOs:1 and 2) were synthesized and fluorescence-labeled. Binding of the labeled peptides to the regulatory subunit isoforms was monitored using a fluorescence assay in which binding of the peptide was proportional to an increase in steady state anisotropy. […]

[3] = molecular target: RIα isoform of PKA (Bos taurus, UniProt P00514); assay: In vitro pull-down assay of GST-fused AKB domain variants (Example 1); format: binding; conditions: GST fusion of 40 C-terminal residues of D-AKAP2; RIα 20 μM; mouse and human AKB domains
Source text: Binding of each AKB domain variant to PKA was first examined using an in vitro pull-down assay, in which the 40 C-terminal residues of D-AKAP2 (amino acids 623-662 of SEQ ID NO:64) containing the AKB were fused to glutathione-S-transferase (GST). The GST fusion constructs were made by fusing the 40 C-terminal amino acids of D-AKAP2 to the C-terminus of GST and subcloning between the NdeI and BamHI sites of pRSET (Invitrogen, Carlsbad, Calif.). The constructs were transfected into BL21 cells and expressed for 6 hours at 20° C. The cells were lysed in PBS with 5 mM BME and 0.1% Triton X-100. 3 μl of supernatant were added to 200 μl of this buffer and 10 μl glutathione beads. After three washes, RIα (53 μg, 20 μM) and RIIα (2.4 μg, 2 μM) were added to the beads, respectively, and the total volume was adjusted to 40 μl. After incubating for 30 min at 4° C., the beads were washed three times, and separated in a 10% acrylamide gel.

[4] = molecular target: T1, RIα-D/D-GFP (Bos taurus, UniProt P00514); assay: Co-localization of PKA regulatory domain with mitochondria-targeted AKB domain in 10T(1/2) cells (Example 3); format: cell-based; conditions: C-terminal 156 residues of D-AKAP2 fused to D-AKAP1 mitochondrial anchoring domain
T1 construct: The dimerization/docking (D/D) domain of RIα and full-length RIIα were each fused with green fluorescent protein (GFP); expressed in transfected cells; host or cells: 10T(1/2) cells
Source text: The 30 amino acid mitochondrial anchoring domain of D-AKAP1 (Chen et al. (1997) J. Biol. Chem., 272:15247-57; and Huang et al. (1997) J. Biol. Chem., 272:8057-8064) was fused to the C-terminal 156 residues of mouse (amino acids 217-372 of SEQ ID NO:55) and human (amino acids 507-662 of SEQ ID NO:64) D-AKAP2, respectively, followed by a Flag-tag and subcloned into pcDNA4 (Invitrogen, Carlsbad, Calif.). The dimerization/docking (D/D) domain of RIα and full-length RIIα were each fused with green fluorescent protein (GFP) and cloned into pEGFPN1 (Clontech, Palo Alto, Calif.). […] The AKB domain was detected by immuno-staining with monoclonal antibodies against the Flag-tag (Kodak, Rochester, N.Y.) followed by rhodamine-conjugated secondary antibody (Jackson Lab, Bar Harbor, Me.). […]
In this assay, the AKB domain within the C-terminal 156 residues of D-AKAP2 from mouse (Val) and human (Ile) was fused to the mitochondrial anchoring domain from D-AKAP1 and tethered to the outer mitochondrial membrane (Chen et al. (1997) J. Biol. Chem., 272:15247-15257; and Huang et al. (1997) J. Biol. Chem., 272:8057-8064). The binding of the AKB domain with the PKA regulatory domains was detected as the co-transfected PKA regulatory domains co-localized to the mitochondria. […]

[5] = molecular target: PKA-RIIα-GFP (Mus musculus, UniProt P12367); assay: ELISA of biotinylated 27-mer peptide immobilized on neutravidin plates; format: binding; conditions: 25 μM peptide on neutravidin; 0-5 μg/ml PKA-RIIα-GFP
Protocol: The peptide biotin-bA-bA-[…] (SEQ ID NO:14) was synthesized as a C-terminal amide in milligram quantity and purified to a 96% purity by HPLC. Its identity was confirmed by MALDI TOF (matrix-assisted laser desorption ionization time-of-flight) mass spectrometry. The peptide was immobilized in neutravidin (NA)-coated 96-well microtiter plates and incubated with various concentrations of PKA-RIIα-GFP. Binding was detected using an anti-GFP antibody (3E6, Quantum Biotechnologies, QBiogene, Carlsbad, Calif.) in combination with a second horseradish peroxidase labeled antibody. Microtiterplates were coated with 40 μg/ml Neutravidin (NA) and subsequently incubated with 25 μM peptide. Various concentrations (0-5 μg/ml) of PKA-RIIα-GFP were added. Bound subunit was detected using a mouse anti-GFP antibody (1 μg/ml) and an anti-mouse-IgG-antibody labeled with peroxidase (1 μg/ml). Negative controls were utilized that contained either a microtiter plate with only neutravidine or only peptide, or neither one.

Sequence of PKA-RIα-GFP (P00514 1-109 limits assumed): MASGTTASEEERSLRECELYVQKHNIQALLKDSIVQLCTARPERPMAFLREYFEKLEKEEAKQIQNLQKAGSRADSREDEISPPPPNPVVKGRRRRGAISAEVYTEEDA
Sequence of RIα (P00514 whole entry, the tested form may be a part, canonical isoform): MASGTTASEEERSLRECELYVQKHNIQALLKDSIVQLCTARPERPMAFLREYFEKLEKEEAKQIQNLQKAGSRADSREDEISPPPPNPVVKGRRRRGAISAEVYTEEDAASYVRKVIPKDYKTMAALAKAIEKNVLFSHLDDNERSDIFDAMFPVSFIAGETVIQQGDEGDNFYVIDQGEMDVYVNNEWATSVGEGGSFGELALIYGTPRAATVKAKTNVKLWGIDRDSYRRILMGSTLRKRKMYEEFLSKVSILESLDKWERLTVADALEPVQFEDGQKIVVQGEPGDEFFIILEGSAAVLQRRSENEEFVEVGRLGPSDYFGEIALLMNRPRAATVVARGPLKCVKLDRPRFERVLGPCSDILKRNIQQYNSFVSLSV
Sequence of PKA-RIIα-GFP (P12367 1-46): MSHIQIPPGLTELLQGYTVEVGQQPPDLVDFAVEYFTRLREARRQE
T1 sequence (P00514 2-135 limits assumed): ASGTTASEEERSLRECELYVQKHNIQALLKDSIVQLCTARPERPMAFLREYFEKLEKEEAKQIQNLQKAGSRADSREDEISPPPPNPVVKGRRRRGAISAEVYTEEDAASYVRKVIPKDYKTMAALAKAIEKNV
Sequence of RIα isoform of PKA (P00514 whole entry, the tested form may be a part, canonical isoform): as the sequence (P00514 whole entry, the tested form may be a part, canonical isoform) above

Molecule: CC[C@H](C)[C@H](NC(=O)[C@H](CCCCN)NC(=O)[C@H](Cc1c[nH]c2ccccc12)NC(=O)[C@H](C)NC(=O)[C@H](CC(C)C)NC(=O)[C@H](CCC(=O)O)NC(=O)[C@H](CCC(=O)O)NC(=O)[C@H](CCC(N)=O)NC(=O)[C@H](C)NC(=O)[C@H](CCC(=O)O)NC(=O)[C@H](CC(=O)O)NC(=O)[C@@H](NC(=O)[C@H](CC(N)=O)NC(=O)CNC(=O)[C@H](CCC(N)=O)NC(=O)[C@@H](NC(C)=O)C(C)C)[C@@H](C)O)C(=O)N[C@@H](C)C(=O)N[C@@H](CCCCN)C(=O)N[C@@H](CCSC)C(=O)N[C@H](C(=O)N[C@H](C(=O)N[C@@H](CO)C(=O)N[C@@H](CC(=O)O)C(=O)N[C@H](C(=O)N[C@@H](CCSC)C(=O)N[C@@H](CCC(N)=O)C(=O)N[C@@H](CCC(N)=O)C(N)=O)C(C)C)C(C)C)[C@@H](C)CC [SEQ ID NO:15] (Ac-VQGNTDEAQEELAWKIAKMIVSDVMQQ-NH2)
Kd [1]: 500 nM

Kd ([1]; PKA-RIα-GFP coupled to chip (1681 RU), BSA control chip, read-out: PKA-RIα-GFP binding affinity): 860 nM
Molecule: CC[C@H](C)[C@H](NC(=O)[C@H](CCCCN)NC(=O)[C@H](Cc1c[nH]c2ccccc12)NC(=O)[C@H](C)NC(=O)[C@H](CC(C)C)NC(=O)[C@H](CCC(=O)O)NC(=O)[C@H](CCC(=O)O)NC(=O)[C@H](CCC(N)=O)NC(=O)[C@H](C)NC(=O)[C@H](CCC(=O)O)NC(=O)[C@H](CC(=O)O)NC(=O)[C@@H](NC(=O)[C@H](CC(N)=O)NC(=O)CNC(=O)[C@H](CCC(N)=O)NC(=O)[C@@H](NC(C)=O)C(C)C)[C@@H](C)O)C(=O)N[C@@H](C)C(=O)N[C@@H](CCCCN)C(=O)N[C@@H](CCSC)C(=O)N[C@H](C(=O)N[C@H](C(=O)N[C@@H](CO)C(=O)N[C@@H](CC(=O)O)C(=O)N[C@H](C(=O)N[C@@H](CCSC)C(=O)N[C@@H](CCC(N)=O)C(=O)N[C@@H](CCC(N)=O)C(N)=O)[C@@H](C)CC)C(C)C)[C@@H](C)CC [SEQ ID NO:16] (Ac-VQGNTDEAQEELAWKIAKMIVSDIMQQ-NH2)

Molecule: VQGNTDEAQEELAWKIAKMIVSDVMQQ (not fully specified (N-terminus); listed as Homo sapiens) [SEQ ID NO:2]
binding affinity to RIα compared to the Ile variant [2]: nearly three-fold increase in binding affinity

binding of the RIα isoform of PKA to the AKB variant [3]: significantly higher affinity
binding affinity to RIα compared to the Ile variant [2]: three-fold tighter
Molecule: Val variant: D-AKAP2 AKB domain with Val at amino acid 646 (SEQ ID NO:65), tested as GST fusion or mitochondria-targeted fusion construct (VQGNTDEAQEELAWKIAKMIVSDVMQQAQYDQPLEKSTKL; not fully specified)
targeting of RIα to the mitochondria [4]: effectively targeted RIα to the mitochondria

Molecule: biotin-bA-bA-VQGNTDEAQEELAWKIAKMIVSDIMQQ [SEQ ID NO:14]
binding to PKA-RIIα in ELISA [5]: able to bind to PKA-RIIα
